Data on three molecules can be found in paper PMC12130729, “CD98hc, a novel of galectin-8 receptor, binds to galectin-8 in an N-glycosylation-dependent manner” (Acta Biochimica et Biophysica Sinica, 2025).

In experiment [1] the target is Extracellular domain of CD98hc (CD98hc-ED), His-tagged (human) (UniProt P08195). As to the kind of experiment: MST; His-tagged CD98hc-ED (50 nM) labelled with RED-tris-NTA 2nd generation as target; Gal-8, Gal-8N or Gal-8C titrated 50 μM to 12.21 nM (1:1 dilution series); Monolith NT.115, room temperature, LED 60%, MST power medium; KD fit; three independent experiments.

For experiment [2], the target named is T1, Extracellular domain of CD98hc (CD98hc-ED), His-tagged (human, UniProt P08195 105-529, N-glycosylated (glycosylated CD98hc-ED)).
T1 construct: CD98hc, human (cDNA from HeLa cells), extracellular domain; the printed primers encode an added start Met followed by RAPRCR, and end with RFPYAA (the C-terminus) followed by six His codons and a stop; His6 and its C-terminal position are read from the reverse primer; the text says only 'with a His-tag'; No signal peptide is encoded by the primers. 'Free CD98hc-ED' is this protein after PNGase F …
T1 sequence (looked up): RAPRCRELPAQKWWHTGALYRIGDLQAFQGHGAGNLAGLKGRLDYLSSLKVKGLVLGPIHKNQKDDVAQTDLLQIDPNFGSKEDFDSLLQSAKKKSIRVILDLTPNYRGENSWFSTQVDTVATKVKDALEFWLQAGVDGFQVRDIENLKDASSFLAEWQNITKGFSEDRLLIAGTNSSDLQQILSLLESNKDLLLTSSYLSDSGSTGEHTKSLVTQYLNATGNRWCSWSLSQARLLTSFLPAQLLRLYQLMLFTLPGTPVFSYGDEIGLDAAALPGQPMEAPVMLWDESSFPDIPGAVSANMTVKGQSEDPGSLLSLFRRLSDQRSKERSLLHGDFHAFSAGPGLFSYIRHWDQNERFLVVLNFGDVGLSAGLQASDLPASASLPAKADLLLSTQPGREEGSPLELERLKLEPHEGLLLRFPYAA
The description is as above. Conditions: both partners purified.

“Recombinant Gal-8 (His-Gal-8) (from UniProt O00214 1-317) (natural protein)”: the Kd (in general, a measure of binding affinity in units of concentration) in experiment [1] amounted to 1510 nM.

B1: Recombinant Gal-8C (His-Gal-8C) (domain or fragment, human, UniProt O00214 187-317, looked up)
chain: FAARLNTPMGPGRTVVVKGEVNANAKSFNVDLLAGKSKDIALHLNPRLNIKAFVRNSFLQESWGEEERNITSFPFSPGMYFEMIIYCDVREFKVAVNGVHSLEYKHRFKELSSIDTLEINGDIHLLEVRSW
notes: Galectin-8, human, C-terminal carbohydrate recognition domain (Gal-8C); also called C-terminal carbohydrate recognition domain of Gal-8; source: E. coli BL21 (DE3) pLysS, as previously described by Si et al. [9]
Consider B1, for which, in experiment [2], the Kd was found to be 10700 ± 1690 nM.

B2: Recombinant Gal-8N (His-Gal-8N) (domain or fragment, human, UniProt O00214 1-152, looked up)
chain: MMLSLNNLQNIIYNPVIPFVGTIPDQLDPGTLIVIRGHVPSDADRFQVDLQNGSSMKPRADVAFHFNPRFKRAGCIVCNTLINEKWGREEITYDTPFKREKSFEIVIMVLKDKFQVAVNGKHTLLYGHRIGPEKIDTLGIYGKVNIHSIGFS
notes: Galectin-8, human, N-terminal carbohydrate recognition domain (Gal-8N); also called N-terminal carbohydrate recognition domain of Gal-8; source: E. coli BL21 (DE3) pLysS, as previously described by Si et al. [9]
B2: in experiment [2], the Kd amounted to 220 ± 30 nM.
